Changes are numbered by the printed parent chain. In names and notes the source's numbering stands. Some results are limits rather than exact numbers.

For assay [1], the target named is T1, Ala6/C-degron peptide (sequence: …).
T1 chain: YKTSAAAAAA
The assay is described as follows: ITC. To be noted: chain shown with the change.

The target of a further assay is Pirh2 R54A (human) (UniProt Q96PM5). Nature of the assay: ITC; peptides (0.6–1.0 mM) titrated into the cell with 180–220 μM protein at 16 °C; 20 mM Tris-HCl pH 7.5, 150 mM NaCl, 10 μM Zn2+; one-site binding model.
The target of another assay is Pirh2 D94A (human) (UniProt Q96PM5). The description is as above.
Assay [2] deals with Pirh2 with Ala159 substituted with aspartic acid (human) (UniProt Q96PM5). Described as above.
The next assay concerns the target Pirh2 Q99A (human) (UniProt Q96PM5). The assay is described as above.
Assay [3] has as its target Pirh2 with Ser155 substituted with aspartic acid (human) (UniProt Q96PM5). The description is as above.

B1: WT Pirh2 S155D (protein)
chain: MAATAREDGASGQERGQRGCEHYDRGCLLKAPCCDKLYTCRLCHDNNEDHQLDRFKVKEVQCINCEKIQHAQQTCEECSTLFGEYYCDICHLFDKDKKQYHCENCGICRIGPKEDFFHCLKCNLCLAMNLQGRHKCIENVSRQNCPICLEDIHTDRVVAHVLPCGHLLHRTCYEEMLKEGYRCPLCMHS
For the molecule B1, in assay [1], the Kd was 4.5 µM.

B2: WT Pirh2 Q99A (protein)
chain: B1 chain with Q99A, D155S
The molecule B2 yielded a Kd in assay [1] of 3.5 µM.

B3: WT Pirh2 R54A (protein)
chain: B1 chain with R54A, D155S
As for B3, in assay [1], the Kd was above 100 µM.

B4: WT Pirh2 D94A (protein)
chain: B1 chain with D94A, D155S
Take B4: in assay [1], the Kd is 3 µM.

B5: WT Pirh2 A159D (protein)
chain: B1 chain with D155S, A159D
In assay [1], B5 displayed a Kd of 7.1 µM.

As for YKTSAAAAAA [Ala6/C-degron peptide (sequence: …)], the fold decrease in binding affinity against wild-type Pirh2 is above 6 fold with Pirh2 R54A (human); above 6 fold with Pirh2 D94A (human); 14 fold in assay [2]; above 6 fold with Pirh2 Q99A (human); 9 fold in assay [3].
